Molecular target: mouse CD8 (mouse) (UniProt P01731)
Test: cell ELISA on dried mouse thymocytes containing CD8+ cells, detection with biotinylated MO3

## native trypanosome-derived lymphocyte triggering factor (TLTF), antibody affinity purified (ligand)
  dilution of TLTF down to which a signal above background was obtained: 0.001 dilution

From patent publication US5891439
